The source of these data is patent publication US20230047413A1 (Janssen / Centocor, published 2023).

Experiment [1] deals with T1, Peptide-2 (human, phosphothreonine 212, phosphothreonine 217 (tau 2N4R numbering); short chain biotin (SCBiot) and dPEG4 at the N-terminus; amide at the C-terminus).
T1 construct: also called pT212/pT217-tau peptide (Peptide-2)
In words: SPR ProteOn, mAb captured, peptide as analyte. As to the method:
(§1) A subset of HFA-PT3 monoclonal antibody variants, selected based on biophysical characterization and ELISA binding to PHF, were analyzed by Surface Plasmon Resonance (SPR) with a ProteOn XPR36 for binding to the following phosphopeptides: pT212/pT217-tau peptide (Peptide-2, SEQ ID NO: 48) and pT212-tau peptide (Peptide-8, SEQ ID NO: 54). All experiments were performed at 25° C. using PBST, pH 7.4, (Bio-Rad Cat#176-2720) as both running buffer and sample dilution buffer.
(§2) Monoclonal antibody/Peptide binding. […] Anti-human IgG was amine-coupled to the chip surface using EDC/NHS, then washed with ethanolamine. Antibodies were diluted to 2 μg/mL in PBST and injected on the surface for 5 min at 30 μL/min to achieve a maximum density of 900-1000 RU. Peptides were injected as analytes at 60 μL/min for 3 min, followed by 5 min dissociation. Peptide-2 was diluted in PBST to generate a three-fold concentration series (0-30 nM) and measured in duplicate. Single measurements of monoclonal antibody binding to Peptide-8 were recorded over the concentration range 0-100 nM.
(§3) Data were double referenced by subtraction of the interspot response, and the curves generated by the buffer only injection. The chip surface was regenerated with 0.85% phosphoric acid, followed by PBST injection before the next antibody titration injection. Data processing and analysis were performed using instrument software. The data were fit using a simple Langmuir 1:1 binding model.

In experiment [2] the target is T1, Peptide-2. In words: SPR ProteOn, mAb captured, peptide as analyte; range of n=2. On the procedure: as §1, §2, §3
For another experiment, the target named is T2, Peptide-8 (human, phosphothreonine 212 (tau 2N4R numbering); SCBiot and dPEG4 at the N-terminus; amide at the C-terminus).
T2 construct: also called pT212-tau peptide (Peptide-8)
In words: SPR ProteOn, mAb captured by anti-human Fc, peptide as analyte. As to the method:
as §1, §2, §3

The target of experiment [3] is T3, tau phospho-peptide of the direct ELISA of Example 11.
T3 construct: also called pT217 peptide; pT212/pT217 peptide
In words: direct ELISA, peptide coated. As to the method:
(§4) Binding to tau phospho-peptide was analysed by ELISA where peptide (10 ng/mL) was directly coated to the plate overnight. […] After incubation with antibodies, plates were washed and 50 μL per well of HRPO labelled anti-Fab antibody (Jackson Immunoresearch laboratories) (diluted 1:10000 in blocking buffer). After another washing step detection was performed with “One step” TMB (Thermo Scientific) according to the manufacturers' instructions. Plates were analysed in EnVision® 2102 Multilabel Reader (Perkin Elmer, Waltham, Mass., USA). Binding curves were generated using GraphPad Prism7.0 software.

The target of experiment [4] is T4, PHF-tau (paired helical filament tau isolated from Alzheimer's disease brain) (human, UniProt P10636-8 2-441, limits assumed, hyper-phosphorylated, aggregated; sites not listed for the preparation).
T4 construct: also called enriched PHF-tau; ePHF-tau
In words: SPR ProteOn, PHF-tau capture-coupled via HT7, bivalent model. On the procedure:
(§5) Affinity matured monoclonal antibodies were tested for binding to PHF-tau isolated from Alzheimer's disease brain.
(§6) A GLC sensor chip was covalently immobilized with a mouse anti-tau antibody, HT7 (ThermoFisher, catalog# MN1000) using the vendor recommended protocol for amine-coupling chemistry (˜5000 response units, RU). The coupling buffer was 10 mM, pH 4.5 sodium acetate. PHF-tau was prepared by 2-times centrifugation at 5000×g in 5° C. for 10 min. […] After capture-coupling, the surface was activated and deactivated to generate a homogenous PHF-tau surface for antibody binding studies. The anti-tau antibodies and their Fabs (prepared in running buffer, 0.024-75 nM at 5-fold dilutions) were injected at 50 μL/min over the PHF-tau surface to measure binding. The association and dissociation profiles were monitored for 4 minutes and 2 hours, respectively. After dissociation, the sensor chip was regenerated using multiple injections of 10 mM Glycine pH 2.0 and the running buffer. A reference surface (without any PHF-tau) was used to monitor non-specific binding of the injected mAbs or Fabs. HT7 antibody was used as a positive control. The binding sensorgrams for mAbs were fit using a bivalent binding model where the apparent affinity or avidity-driven binding (KD) was reported as the ratio of off-rate and on-rate (koff/kₒₙ). A 1:1 Langmuir binding model was used for kinetics analysis of Fabs.

Experiment [5] concerns the target T3, tau phospho-peptide of the direct ELISA …. In words: direct ELISA on plate-coated tau phospho-peptide (10 ng/mL), detection with HRPO-labelled anti-Fab antibody. As to the method: as §4
Experiment [6] addresses T4, PHF-tau (paired helical filament tau …). In words: SPR ProteOn, PHF-tau capture-coupled via HT7, bivalent model. On the procedure:
A subset of HFA-PT3 monoclonal antibodies was tested for binding to PHF-tau isolated from Alzheimer's disease brain. All interactions were studied at 25° C. using PBS pH 7.4, supplemented with 3 mM EDTA, and 0.005% Tween 20 as running or system buffer. HT7 (Pierce, catalog #MN1000), a mouse anti-tau antibody, was used as a positive control.
The interaction of anti-tau monoclonal antibodies with PHF-tau was analyzed by ProteOn using a biosensor surface prepared by capture-coupling PHF-tau using HT7 as the capture reagent. PHF-tau was prepared by 2-times centrifugation at 5000×g at 5° C. for 10 min; the supernatant from the second centrifugation was then diluted 1/40 in running buffer. To prepare the chip, HT7 was covalently immobilized to the surface of a GLC (ProteOn) sensor chip using the manufacturer's instructions for amine-coupling chemistry (˜5000 response units (RU)). The coupling buffer was 10 mM sodium acetate, pH 4.5. After HT7 immobilization, PHF-tau was injected and captured (˜300 RU) by HT7. After capture, PHF-tau was covalently immobilized to the sensor chip by activation of the chip using the manufacturer's instructions for amine-coupling chemistry. Remaining reactive sites were blocked by the injection of ethanolamine. After preparation and stabilization of the PHF-tau-modified surface and reference surface (containing no antigen), the anti-tau antibodies were diluted in the running buffer and injected in solution (0.12-75 nM in 5-fold dilutions). The association was monitored for 3 minutes (120 μL injected at 40 μL/min). The dissociation was monitored for 15 minutes. Regeneration of the sensor surface was performed using 10 mM Gly pH 2.0. The data for monoclonal antibodies were fit using a bivalent binding model where the apparent affinity (KD) was reported as the ratio of koff/kₒₙ. A Langmuir 1:1 binding model was used for kinetics analysis of Fabs.
This is another data set of the same source.

Experiment [7] has as its target T1, Peptide-2. In words: SPR ProteOn, mAb captured, peptide as analyte; range of n=2; upper end of n=2 range. On the procedure: as §1, §2, §3
Experiment [8] addresses T4, PHF-tau (paired helical filament tau …). In words: SPR ProteOn, PHF-tau on chip.
Experiment [9] shares this target. In words: SPR ProteOn, PHF-tau capture-coupled via HT7, 1:1 model. As to the method: as §5, §6

In general, koff refers to a measure of how fast the partners let go of each other. One may read the kon as the second-order rate constant of association. By EC50 is commonly meant the concentration at which the effect is half-maximal. For orientation: EC50 (read off the curve) means the concentration that produces a half-maximal response. A high value points to lower potency in that assay.

Where a chain is given by its changes, count along the chain named. In names and notes the source's numbering stands. Several values for one entry are separate records, joined by “and”; a condition that tells them apart may be missing. Equal entries are not always repeated.

T2 sequence (peptide, as listed by the source): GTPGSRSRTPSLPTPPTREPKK
T4 sequence (P10636 other isoform, or with tags, fused parts or gaps limits assumed): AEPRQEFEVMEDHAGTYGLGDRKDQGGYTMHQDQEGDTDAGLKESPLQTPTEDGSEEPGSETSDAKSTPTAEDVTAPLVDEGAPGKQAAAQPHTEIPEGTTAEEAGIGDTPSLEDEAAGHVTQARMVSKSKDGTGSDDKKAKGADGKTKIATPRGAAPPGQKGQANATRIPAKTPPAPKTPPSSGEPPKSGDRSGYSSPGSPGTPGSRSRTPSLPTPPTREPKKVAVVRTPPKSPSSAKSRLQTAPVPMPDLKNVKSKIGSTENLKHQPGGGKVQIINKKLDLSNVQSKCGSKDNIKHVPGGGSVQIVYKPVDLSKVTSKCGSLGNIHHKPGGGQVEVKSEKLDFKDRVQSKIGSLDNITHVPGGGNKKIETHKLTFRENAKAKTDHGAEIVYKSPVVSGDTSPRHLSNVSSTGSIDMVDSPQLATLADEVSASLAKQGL

B1: B234 (antibody, human IgG1, V domains shown)
VH: EVKLVESGGDLVKPGGSLKLSCAASGFTFSSYAMSWVRQNPEKRLEWVASISKGGNTYYPNSVKGRFTISRDNARNILYLQMSSLRSEDTALYYCARGWGDYGWFAYWGQVTLVTVSA
VL: DIKMTQSPSSMYASLGERVTITCKASQDINRYLNWFQQKPGKSPKTLIYRANRLLDGVPSRFSGSGSGQDYSLTISSLDYEDMGIYYCLQYDEFPLTFGDGTKLELK
notes: Mouse PT3 variable regions (VH10/VL7) with human IgG1/kappa constant region; also called mouse PT3, hIgG1
For B1, in the experiment with Peptide-2 [1], the Kd stood at 0.0292 nM, the dissociation rate constant (koff) was 0.000325 s⁻¹ and the kon amounted to 9.35e+06 M⁻¹ s⁻¹. Also, in the experiment with Peptide-2 [2], the Kd fell in the range of 0.0278 to 0.0306 nM; the koff was 0.000242 s⁻¹ and 0.000408 s⁻¹; the on-rate constant (kon) was 8.7e+06 M⁻¹ s⁻¹ and 1e+07 M⁻¹ s⁻¹. In the experiment with Peptide-8, this molecule showed a Kd of 3.48 nM, an off-rate (koff) of 0.00802 s⁻¹ and a kon of 2.31e+06 M⁻¹ s⁻¹.

B2: B333 (antibody, human IgG1, kappa, V domains shown)
VH: QVQLVESGGGVVQPGRSLRLSCAASGFTFSSYAMSWVRQAPGKGLEWVASISKGGNTYYADSVKGRFTISRDNSKNTLYLQMNSLRAEDTAVYYCARGWGDYGWFAYWGQVTLVTVSS
VL: DIQMTQSPSSLSASVGDRVTITCKASQDINRWLNWFQQKPGKAPKSLIYRANRLLDGVPSRFSGSGSGTDFTLTISSLQPEDFATYYCLQYDEFPLTFGQGTKLEIKR
notes: also called PT1B333
B2 returned a 50% effective concentration (EC50) in experiment [3] of 0.164 nM. In experiment [4], the Kd amounted to 0.0025 nM, the koff was 6.8e-06 s⁻¹ and the kon is 2.68e+06 M⁻¹ s⁻¹. Further, the “EC50 (read off the curve)” value in experiment [5] was approximately 0.09 nM.

B3: B252 (antibody, human IgG1, V domains shown)
VH: B2 VH with V11L, Q13K, R16G, V37I, A49S, S74A, T77S
VL: DIVMTQTPLSSPVTLGQPASISCKASQDINRYLNWLQQRPGQPPRLLIYRANRLLDGVPDRFSGSGAGTDFTLKISRVEAEDVGVYYCLQYDEFPLTFGQGTKLEIK
notes: Humanized (HFA) PT3 variant, human IgG1/kappa; also called VH93/VL80
For the molecule B3, the Kd with Peptide-2 [1] was 0.172 nM; with Peptide-2 [2], 0.126 to 0.217 nM; in [6], 0.032 nM; in the experiment with Peptide-8, 32.6 nM. The koff with Peptide-2 [1] was determined as 0.000901 s⁻¹; with Peptide-2 [2], 0.000856 s⁻¹; in experiment [6], 4.28e-05 s⁻¹; with Peptide-8, 0.0242 s⁻¹; in the experiment with Peptide-2 [7], 0.000946 s⁻¹. The kon with Peptide-2 [1] came out at 5.75e+06 M⁻¹ s⁻¹; in the experiment with Peptide-2 [2] it was 3.95e+06 M⁻¹ s⁻¹; in experiment [6], 1.32e+06 M⁻¹ s⁻¹; in the experiment with Peptide-8 it was 742000 M⁻¹ s⁻¹; with Peptide-2 [7] it was 7.54e+06 M⁻¹ s⁻¹.

B4: B352 (IgG4 mAb) (antibody, V domains shown)
VH: B2 VH
VL: DIQMTQSPSSLSASVGDRVTITCKASQDINRYLNWFQQKPGKAPKSLIYRANRLLDGVPSRFSGSGSGTDFTLTISSLQPEDFATYYCLQYDEFPLTFGQGTKLEIK
notes: IgG4 variant of B296 with the same variable regions; also called B296 as hIgG4
In the case of B4, in experiment [8], the “fold difference in affinity against B296” value is not above 2 fold. Moreover, in experiment [6], the Kd was determined as 0.043 nM, the koff amounted to 1.11e-05 s⁻¹ and the kon is 255000 M⁻¹ s⁻¹.

B5: B282 (antibody, human IgG1, V domains shown)
VH: B2 VH with V11L, Q13K, R16G, V37I, A49S, S74A, T77S
VL: B4 VL
notes: Humanized (HFA) PT3 variant, human IgG1/kappa; also called VH93/VL77
Consider B5, for which the Kd with Peptide-2 [1] is 0.445 nM; with Peptide-2 [2], 0.36 to 0.529 nM; in experiment [6] it was 0.061 nM; with Peptide-8, 86.5 nM. Further, the koff worked out at 0.00132 s⁻¹ with Peptide-2 [1]; 0.00124 s⁻¹ with Peptide-2 [2]; 4.08e-05 s⁻¹ in [6]; 0.0382 s⁻¹ with Peptide-8; 0.0014 s⁻¹ in the experiment with Peptide-2 [7]. For the same molecule, the kon with Peptide-2 [1] was found to be 3.12e+06 M⁻¹ s⁻¹; with Peptide-2 [2], 2.34e+06 M⁻¹ s⁻¹; in experiment [6], 665000 M⁻¹ s⁻¹; with Peptide-8 it was 442000 M⁻¹ s⁻¹; with Peptide-2 [7], 3.89e+06 M⁻¹ s⁻¹.

B6: B331 (Fab of B333) (Fab, V domains shown)
VH: B2 VH
VL: B4 VL with Y32W
In experiment [9], B6 returned a Kd of 0.031 nM, a koff of 5.31e-05 s⁻¹ and a kon of 1.72e+06 M⁻¹ s⁻¹.

B7: B297 (antibody, human IgG1, V domains shown)
VH: B2 VH with V11L, Q13K, R16G, V37I, A49S, S74A, T77S
VL: B4 VL with D56S
notes: Humanized (HFA) PT3 variant, human IgG1/kappa; it is built from VL77 with D56S; also called VH93/VL78
In experiment [6], B7 displayed a Kd of 0.042 nM, a koff of 6.03e-05 s⁻¹ and a kon of 1.44e+06 M⁻¹ s⁻¹.

B8: B332 (Fab of B809) (Fab, V domains shown)
VH: B2 VH with S30T, S52T, D101I
VL: B4 VL
On to B8, for which, in experiment [9], the Kd came out at 0.0258 nM, the koff was 0.00012 s⁻¹ and the on-rate constant (kon) came to 4.64e+06 M⁻¹ s⁻¹.
